From US20180148497A1 (DUKE UNIVERSITY, published 2018) come the findings set out here.

For test [1], the target named is T1, human CD3 on cells (primary human T cells; Jurkat 522-F/Y cells) (human, UniProt P07766 23-207).
T1 construct: whole, on cells; The other chains of the CD3 complex were also present on the cells; also called CD3ε; human CD3+ T cells
Briefly: flow cytometry on primary human T cells (Env- CD3+), biotinylated anti-EK antibody and streptavidin-PE [panel D. Human T Cells].

In test [2] the target is T2, HIV-1 Env, HXBc2, subtype B, expressed on Jurkat 522-F/Y cells (HIV-1 (HXBc2, subtype B), UniProt P04578 33-856). As to the kind of experiment: cell-based or functional assay.
Test [3] concerns the target T3, M.ConS gp140 CFI (HIV-1 group M consensus Env protein).
T3 construct: also called M.ConS gp140ΔCFI
Briefly: SPR (BIAcore 3000), M.ConS gp140 over DART captured on immobilized CD3ε/δ, 1:1 Langmuir global fit.

Test [4] has as its target T3, M.ConS gp140 CFI (HIV-1 group M …). Briefly: SPR (BIAcore 3000), Env protein over DART captured on immobilized CD3.
In test [5] the target is T1, human CD3 on cells (primary human T …). Briefly: flow cytometry on primary human T cells (Env- CD3+), DART at 4 µg/mL, biotinylated anti-EK antibody and streptavidin-PE [panel D. Human T Cells]. (A flow cytometer gives signals particle by particle.)
The target of test [6] is T2, HIV-1 Env, HXBc2, subtype B, expressed …. As to the kind of experiment: flow cytometry on Jurkat-522 F/Y cells (Env+ CD3+), biotinylated anti-EK antibody and streptavidin-PE [panel F. Jurkat-522 F/Y Cells].
In test [7] the target is JR-FL gp140 CF (HIV-1 Env protein) (HIV-1 (JR-FL)). As to the kind of experiment: SPR (BIAcore 3000), JR-FL gp140 over DART captured on immobilized CD3ε/δ, 1:1 Langmuir global fit.
The target is the same in test [8]. Briefly: SPR (BIAcore 3000), Env protein over DART captured on immobilized CD3. (In SPR one partner is held on a chip, and binding of the other changes the refractive index at the surface.)

T1 sequence (P07766 23-207): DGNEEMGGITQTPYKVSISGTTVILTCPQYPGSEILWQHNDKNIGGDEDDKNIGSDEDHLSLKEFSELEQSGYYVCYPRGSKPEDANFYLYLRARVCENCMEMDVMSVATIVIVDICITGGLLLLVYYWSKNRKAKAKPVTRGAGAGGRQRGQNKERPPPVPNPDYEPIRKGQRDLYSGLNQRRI

B1: HIV-1 × Fluorescein Bi-Specific Diabody (A32 × 4420) (bispecific antibody)
chain 1: QSALTQPPSASGSPGQSVTISCTGTSSDVGGYNYVSWYQHHPGKAPKLIISEVNNRPSGVPDRFSGSKSGNTASLTVSGLQAEDEAEYYCSSYTDIHNFVFGGGTKLTVLGGGSGGGGEVKLDETGGGLVQPGRPMKLSCVASGFTFSDYWMNWVRQSPEKGLEWVAQIRNKPYNYETYYSDSVKGRFTISRDDSKSSVYLQMNNLRVEDMGIYYCTGSYYGMDYWGQGTSVTVSSGGCGGGEVAALEKEVAALEKEVAALEKEVAALEK
chain 2: DVVMTQTPFSLPVSLGDQASISCRSSQSLVHSNGNTYLRWYLQKPGQSPKVLIYKVSNRFSGVPDRFSGSGSGTDFTLKISRVEAEDLGVYFCSQSTHVPWTFGGGTKLEIKGGGSGGGGQVQLQESGPGLVKPSQTLSLSCTVSGGSSSSGAHYWSWIRQYPGKGLEWIGYIHYSGNTYYNPSLKSRITISQHTSENQFSLKLNSVTVADTAVYYCARGTRLRTLRNAFDIWGQGTLVTVSSGGCGGGKVAALKEKVAALKEKVAALKEKVAALKE
For the molecule B1, the binding result in test [1] was “no binding (tested: 4 µg/mL (single concentration))”.

B2: HIV-1 × CD3 Bi-Specific Diabody (A32 × CD3) (bispecific antibody)
chain 1: QSALTQPPSASGSPGQSVTISCTGTSSDVGGYNYVSWYQHHPGKAPKLIISEVNNRPSGVPDRFSGSKSGNTASLTVSGLQAEDEAEYYCSSYTDIHNFVFGGGTKLTVLGGGSGGGGEVQLVESGGGLVQPGGSLRLSCAASGFTFSTYAMNWVRQAPGKGLEWVGRIRSKYNNYATYYADSVKGRFTISRDDSKNSLYLQMNSLKTEDTAVYYCVRHGNFGNSYVSWFAYWGQGTLVTVSSGGCGGGEVAALEKEVAALEKEVAALEKEVAALEK
chain 2: QAVVTQEPSLTVSPGGTVTLTCRSSTGAVTTSNYANWVQQKPGQAPRGLIGGTNKRAPWTPARFSGSLLGGKAALTITGAQAEDEADYYCALWYSNLWVFGGGTKLTVLGGGGSGGGGQVQLQESGPGLVKPSQTLSLSCTVSGGSSSSGAHYWSWIRQYPGKGLEWIGYIHYSGNTYYNPSLKSRITISQHTSENQFSLKLNSVTVADTAVYYCARGTRLRTLRNAFDIWGQGTLVTVSSGGCGGGKVAALKEKVAALKEKVAALKEKVAALKE
notes: Two-chain DART without Fc, with an interchain disulfide and E-coil/K-coil domains; also called A32×CD3 DART
By koff is commonly meant the first-order rate constant of dissociation. A high value points to a short-lived complex. The term kon denotes a measure of how fast the partners come together. As usually defined, the Kd is the constant that tells how readily two partners part at equilibrium. Lower therefore signals tighter binding. For the molecule B2, in test [2], the “EC50 of redirected T-cell killing of Env+ Jurkat 522-F/Y GF cells, E:T 10:1, 48 hours, LUM assay” value worked out at 172 pg/mL and the “EC50 of redirected T-cell killing of Env+ Jurkat 522-F/Y cells, E:T 10:1, 48 hours, LDH release assay” value stood at 230 pg/mL. In addition, in test [3], the off-rate (koff) is 0.00081 s⁻¹ and the on-rate (kon) was 17000 M⁻¹ s⁻¹. Besides, in test [4], the Kd worked out at 47.7 nM. In test [5], the binding result was “binds”.

B3: HIV-1 × Fluorescein Bi-Specific Diabody (7B2 × 4420) (bispecific antibody)
chain 1: DIVMTQSPDSLAVSPGERATIHCKSSQTLLYSSNNRHSIAWYQQRPGQPPKLLLYWASMRLSGVPDRFSGSGSGTDFTLTINNLQAEDVAIYYCHQYSSHPPTFGHGTRVEIKGGGSGGGGEVKLDETGGGLVQPGRPMKLSCVASGFTFSDYWMNWVRQSPEKGLEWVAQIRNKPYNYETYYSDSVKGRFTISRDDSKSSVYLQMNNLRVEDMGIYYCTGSYYGMDYWGQGTSVTVSSGGCGGGEVAALEKEVAALEKEVAALEKEVAALEK
chain 2: DVVMTQTPFSLPVSLGDQASISCRSSQSLVHSNGNTYLRWYLQKPGQSPKVLIYKVSNRFSGVPDRFSGSGSGTDFTLKISRVEAEDLGVYFCSQSTHVPWTFGGGTKLEIKGGGSGGGGQVQLVQSGGGVFKPGGSLRLSCEASGFTFTEYYMTWVRQAPGKGLEWLAYISKNGEYSKYSPSSNGRFTISRDNAKNSVFLQLDRLSADDTAVYYCARADGLTYFSELLQYIFDLWGQGARVTVSSGGCGGGKVAALKEKVAALKEKVAALKEKVAALKE
As to B3, the binding result in test [6] and in test [1] was “no binding (tested: 4 µg/mL (single concentration))” throughout.

B4: HIV-1 × CD3 Bi-Specific Diabody (7B2 × CD3) (bispecific antibody)
chain 1: DIVMTQSPDSLAVSPGERATIHCKSSQTLLYSSNNRHSIAWYQQRPGQPPKLLLYWASMRLSGVPDRFSGSGSGTDFTLTINNLQAEDVAIYYCHQYSSHPPTFGHGTRVEIKGGGSGGGGEVQLVESGGGLVQPGGSLRLSCAASGFTFSTYAMNWVRQAPGKGLEWVGRIRSKYNNYATYYADSVKGRFTISRDDSKNSLYLQMNSLKTEDTAVYYCVRHGNFGNSYVSWFAYWGQGTLVTVSSGGCGGGEVAALEKEVAALEKEVAALEKEVAALEK
chain 2: QAVVTQEPSLTVSPGGTVTLTCRSSTGAVTTSNYANWVQQKPGQAPRGLIGGTNKRAPWTPARFSGSLLGGKAALTITGAQAEDEADYYCALWYSNLWVFGGGTKLTVLGGGGSGGGGQVQLVQSGGGVFKPGGSLRLSCEASGFTFTEYYMTWVRQAPGKGLEWLAYISKNGEYSKYSPSSNGRFTISRDNAKNSVFLQLDRLSADDTAVYYCARADGLTYFSELLQYIFDLWGQGARVTVSSGGCGGGKVAALKEKVAALKEKVAALKEKVAALKE
notes: Two-chain DART without Fc; also called 7B2×CD3 DART
In test [7], B4 registered a koff of 0.00031 s⁻¹ and a kon of 20000 M⁻¹ s⁻¹. Moreover, in test [2], the “EC50 of redirected T-cell killing of Env+ Jurkat 522-F/Y GF cells, E:T 10:1, 48 hours, LUM assay” value is 147 pg/mL and the “EC50 of redirected T-cell killing of Env+ Jurkat 522-F/Y cells, E:T 10:1, 48 hours, LDH release assay” value turned out to be 160 pg/mL. Also, the affinity in test [8], expressed as Kd, was 15.1 nM. In addition, in test [5], the binding result is listed as “binds”.
